Measured values taken from patent US20210069341A1.

Biological target: FcRn-biotin (UniProt P55899)
Experiment: ELISA

- EC50: 315 nM
Substance: LC-V205C (from UniProt P01834 1-107)
